The values that follow are results of earlier work, collected in PMC139967 (BMC Biochemistry, 2002).

Experiment in data set [1]: not given
This is another data set of the same source.

B1: Myo1c: Myosin-1c, previously called myosin-Iβ, myr 2, or MI-110K; literature preparations (protein, UniProt O00159 1-1063, looked up)
Unconventional myosin-Ic: MALQVELVPTGEIIRVVHPHRPCKLALGSDGVRVTMESALTARDRVGVQDFVLLENFTSEAAFIENLRRRFRENLIYTYIGPVLVSVNPYRDLQIYSRQHMERYRGVSFYEVPPHLFAVADTVYRALRTERRDQAVMISGESGAGKTEATKRLLQFYAETCPAPERGGAVRDRLLQSNPVLEAFGNAKTLRNDNSSRFGKYMDVQFDFKGAPVGGHILSYLLEKSRVVHQNHGERNFHIFYQLLEGGEEETLRRLGLERNPQSYLYLVKGQCAKVSSINDKSDWKVVRKALTVIDFTEDEVEDLLSIVASVLHLGNIHFAANEESNAQVTTENQLKYLTRLLSVEGSTLREALTHRKIIAKGEELLSPLNLEQAAYARDALAKAVYSRTFTWLVGKINRSLASKDVESPSWRSTTVLGLLDIYGFEVFQHNSFEQFCINYCNEKLQQLFIELTLKSEQEEYEAEGIAWEPVQYFNNKIICDLVEEKFKGIISILDEECLRPGEATDLTFLEKLEDTVKHHPHFLTHKLADQRTRKSLGRGEFRLLHYAGEVTYSVTGFLDKNNDLLFRNLKETMCSSKNPIMSQCFDRSELSDKKRPETVATQFKMSLLQLVEILQSKEPAYVRCIKPNDAKQPGRFDEVLIRHQVKYLGLLENLRVRRAGFAYRRKYEAFLQRYKSLCPETWPTWAGRPQDGVAVLVRHLGYKPEEYKMGRTKIFIRFPKTLFATEDALEVRRQSLATKIQAAWRGFHWRQKFLRVKRSAICIQSWWRGTLGRRKAAKRKWAAQTIRRLIRGFVLRHAPRCPENAFFLDHVRTSFLLNLRRQLPQNVLDTSWPTPPPALREASELLRELCIKNMVWKYCRSISPEWKQQLQQKAVASEIFKGKKDNYPQSVPRLFISTRLGTDEISPRVLQALGSEPIQYAVPVVKYDRKGYKPRSRQLLLTPNAVVIVEDAKVKQRIDYANLTGISVSSLSDSLFVLHVQRADNKQKGDVVLQSDHVIETLTKTALSANRVNSININQGSITFAGGPGRDGTIDFTPGSELLITKAKNGHLAVVAPRLNSR
Consider B1, for which the “effect of Ca^2+ on ATPase activity” value is reported as “increases”. Further, the “effect of Ca^2+ on in vitro motility” value in data set [1] was “completely halts”. The “calmodulins per Myo1c after calmodulin supplementation” value in the data set with calmodulin (calmodulin supplementation) is given as at most 4. In the data set with calmodulin (purified Myo1c), the “calmodulins per Myo1c heavy chain” value is reported as 2–3.
